According to the nanobody polyreactivity screen of Harvey et al. (2022):

Assay: yeast display, Sf9 membrane polyspecificity reagent, FACS + sequencing; frameworks hold sequencing errors
Summary of the method: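 Genes from sorted yeast were amplified by colony PCR, read by MiSeq 2 × 250 sequencing and filtered on CDR length. These cells carried a synthetic nanobody library in Saccharomyces cerevisiae BJ5465 and were sorted by FACS into low and high (top ~1%) gates on anti-HA and streptavidin fluorescence. Polyreactivity is labelled according to the gate of origin.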

Sequence | polyreactivity (PSR sort gate)
QVQLVESGGGLVQAGGSLRLSCAASGFTFYWYDMGWYRQAPGKEWELVATMSPGGGTNYADSVKGRFTISRDNAKNTVSLQMNSLKPEDTSVYYCAADGSAGYQWGYDFEGDYWGQGTQLTVSS | high polyreactivity
QVQLVESGGGLVQAGGSLRLSCAASGLTFGGYAMGWYRQAPGKERELVAAISRSGGSTYYADSVKGRFTISRDNAKNTVYLQMNSLKPEDTAVYYCAAVLSVRVYGYDYWGQGTQVTVSS | low polyreactivity
QVQLVESGGGLVQAGGSLRLSCAASGRTFLIYAMGWYRQAPGKETEFVAAIRGRGGSTYYADSVKGRFTISRDNAKNTVYFQMNCLKPVDTAVYYCAATFPGRSYRIRGYGYDYWGQGTQVTVSS | high polyreactivity
QVQLVESGGGLVQAGGSLRLSCAASGFIFAYYAMGWYRQAPGKERELVAAISQSGTSTYYADSVKGRFTISRDNAKNTVYLQMNSLKPEDTAVYYCNVVPTGVHIFDYWGQGTQVTVSS | low polyreactivity
QVQLVESGGGLVQAGGSLRLSCAASGFTFSGNALGWYRQARGKERELVAAISVGGGRTYYADSVKGRFTISRDNAKNTVYLQMNSLKPEDTAVYYCARYTRRSETWRYDYWGQGTQVTVSS | high polyreactivity
QVQLVESGGGLVQAGGSLRLSCAASGITFQRYAMGWYRQAPGKERELVAAITRGGSTNYADSVKGRFTISRDNAKNTVYLQMNSLKPEDTAVYYCAAGARYGYGYWGQGTQVTVSS | high polyreactivity
QVQLVESGGGLVQAGGSLRLSCAASGRIFYPNTMGWYIQAPGKERELVAAISRSGGSTYYTDSVKGRFTISRDNAKNTVYLQMNSLKPEDTAVYYCATVPYESRYDYWGQGTQVTVSS | high polyreactivity
QVQLVDSGGGLVQAGGSLRLSCAASGSTFESYAMGWDRQAPGKERELVAAISTNGGRTRYADSVKGRFTISRDNAKNTVYLQMNSLKPVDTAVYYCATYVRGVYASSGYDYWGQGTQVTVSS | high polyreactivity
QVQLVESGGGLVQAGGSLRLSCAASGSTFICKAMGWYRQAPGKERELVAAIDYRGGNTYYADSVKGRFTISRDYAKNSVYLHMNSLKPEHTAVYYCAARVVGYEYFYDYYYWGQGTQVTLSS | low polyreactivity
QVQLVESAGGVVQAGGSLRLSCAASGRIFGYNTMGWYRQAPGKERELVAAISGSGASTYYADSVKGRFTISRDNAKNTVYLQMNSLKAEDTAVYYCAAKAYYSTSPYHREHDSWGQGTQVTVSS | low polyreactivity
QVQLEESGGGFVQAAGTLRLSCAPSGRIFLPYAMGWYRQAPGKEREFVAAITWGAGTTYYADSVKGRFTISRDNAKNTVYLQMNSLKPDDTAVYYCNARRRRAFSLYYYWGQGTQVTVSS | high polyreactivity
QVQLVESGGRLVQAGGSHRLSCAASGRTFFHYAMGWYRQSPGKERELVAAITYRGTSTYYADSVKGRFTISRDNAKYTVYIQMNSLKPEDTAVYYCNAYSTRGGWSYRGDSWGQGTQVTVSS | high polyreactivity
QVQLVESGGGLVQAGGSLRLSCAASGLTFHRYAMGWYRPAPGKERELVAAINYSGGRTYYADSVKGRFTISRDNAKYTVYLQMNSLKPEDTAVYYCAARFSRVYPRYDYWGQGTQVTVSS | high polyreactivity
QVQLVESGGCLVQAGGSRSLSCAASGSIFYRNAMGWYRQAPGKERELVAAIRGSDGSTYYADSVKGRFTISRDNGKNTVYLQMNSLKPEDTAVYSCNADTPTWPLDYWGQGTQVTVSS | low polyreactivity
QVQLVESGGGLVHAGGSLRLSCADSGFTFGAYAMGWYRQAPGKERELVATITNSGRTYYADSVKGRFTISRDNAKNTVYLQMNSLNPEDTAVYYCAAQPDGQAMEHWGQGTQVTVSS | low polyreactivity
QVQLVESGGGLVLAGGSLRLSCAASGITFRNYAMGWYRQAPGKEMEFVATISRRAGSTYYADSVKGRFTISRDNAKNTVYLQMNSLKPEDTAVYYCVTYRNWWYDYWGQGTQVTVSS | high polyreactivity

Sequence | polyreactivity (PSR sort gate)
QVQLVESGGGLVQAGGSLRLSCAASGGILHSYAMGWYRQAPGKERELVAAISGSGGSTYYADSVKGRFTISRDNAKNTVYLQMNSLKPEDTAVYYCNAVHHYPEHIGGGYWGQGTQVTVSS | low polyreactivity
QVQLVESGGGLVQAGGSLRLSCAASGSIFYPYAMGWYRQAPGKERELVAAINWGGTITYYADSVKGRFTISRDNAKNTVYLQMNSLKPEDTAVYYCAAKYKGYRYYYWGQGTQVTVSS | high polyreactivity
QVQLVESGGGLVQAGGSLRLSCAASGRTFVTNTMGWYRQAPGKEREFVAAITWNGGGTYYADSVKGRFTISRDNAKNTVYLQMNSLKPEDTAVYYCAARGRTDSYWRFYHWGQGTQVTVSS | high polyreactivity
QVQLVESGGGLVQAGGSLRLSCAASGFTLYYYDKGWYRQSPGKERELVAAISYSGGTTYYADSVKGRFTISRDNAKNTVYLQMNSLNPDDTAVYYCAAEVGGYWADEYLGYDYWGLGTQVTVSS | low polyreactivity
QVQLVESGGGLVQAGGILRLSCAASGRIINIYAMGWYRQAPGKEREMVAAISGSGGRTSYADSVKGRFTFSRDNAKNTVYLQMNILKPEDTAVYYCAADYSYYTSFRYDYWGQGTQVTVSS | low polyreactivity
QVQLVESGGGLVQAGGSLRLSSAASGRIFGRYAMGWYRQAPGKERELVDAITCTGGTTYYADSVKGRFTISRDNAKNTVYLQMNSLKPEDTAVYYCAARQGYGIYGDYYYWGQGTHVTVSS | high polyreactivity
QVQLVESGGGLVQAGGSLRLSCAASGSISNFYAMGWYRQAPGKEREFVAAISTRDGTKRFADSVKGRFTISRDNAKNTVYLQMNSLKPEDTAVYYCAAKGGGVWLYARIYSDYYWGQGTQVTVSS | low polyreactivity
QVQLVESGGGLVQAGGSLRLSCAASGRTFYLYAMGWYRQAPGKERELVAAITSGGSTYYADSVKGRFTISRDNAKNTVYLQMNSLKPEDTAVYYCAKRPVSVGYGYPRVSWGYDYWGQGTQVTVSS | high polyreactivity
QVQLVESGGGLLQAGGSLRLSCAASGITFLGYAMGWYRQATWKERELVAAISISGDTYYADSEKGRFTISRDNAKNTVYLQMNSLKPEDTAVYYCAAVQSYAGFEYGYWGQGTQVTVSS | high polyreactivity
QVQLVESGGGLVQAGGSLRLSCAASGFIFYVYAMGWYRQARGKERELVAAISGGGDSTYYADSVKGRFTISRDNAKNTVYLQMNSLKPEHTAVYYCAAEPWANTPGEAGSPFDYWGQGTQVTVSS | low polyreactivity
QVQLVESGGGLVQAGGSLRLSCAASGRIFKYYVMGWYRQAPGKEREFVAAISGRGGRTYYADSVKGRFTISRDNAKNTVYLQMNSLKPEDTAVYYCATERQERGPLGYNYWGLGTQVTVSS | high polyreactivity
QVQLVESGGGLVQAGGSLRLSCAASGITFYVYAMGWYRQAPGKERELVASITSGGGSTDYADSVKGRFTISRDNAKNTVYLQMNSLKPEDTAVYYCAARYPLLNQLYDFDYWGQGTQVTVSS | low polyreactivity
QVQLVESGGGLVQAGGSLRLSCAASGSTFRTNVMGWYRQAPGKERELVAAITKRGSITYYADSVKGRFTISRDNAKNTVYFQMNSLKPEDTAVYYCAARKVAVGGYGYWGQGTQVTVSS | high polyreactivity
QVQLQESGGGLVQAGGSLRLSCAASGSIFLLHIMCWYRQAPGKERESVAAISYGTSTYYADSVNGRFTICRDNAKNTVYLQMNSPKPDDTAVYYCAALFLVSKHHHFWGEGTQVTVSS | low polyreactivity
QVKLVESGGGLVQAGGSLRLSCAASGLIFIGYAMGWYRPAPGKEMELVASIRGVGSTNYADSVKGRFTISRDNAKNTVYLQMNSLKPEDTAVYYCPNSVDRALYTQTRGDYDYWGQGTQVTVSS | low polyreactivity
